Data: patent US20250042994A1 (HAINAN SIMCERE ZAIMING PHARMACEUTICAL, published 2025)

T1: human CD19 on Raji cells (human, UniProt P15391 20-556)
T1 construct: whole, on cells
T1 sequence (looked up): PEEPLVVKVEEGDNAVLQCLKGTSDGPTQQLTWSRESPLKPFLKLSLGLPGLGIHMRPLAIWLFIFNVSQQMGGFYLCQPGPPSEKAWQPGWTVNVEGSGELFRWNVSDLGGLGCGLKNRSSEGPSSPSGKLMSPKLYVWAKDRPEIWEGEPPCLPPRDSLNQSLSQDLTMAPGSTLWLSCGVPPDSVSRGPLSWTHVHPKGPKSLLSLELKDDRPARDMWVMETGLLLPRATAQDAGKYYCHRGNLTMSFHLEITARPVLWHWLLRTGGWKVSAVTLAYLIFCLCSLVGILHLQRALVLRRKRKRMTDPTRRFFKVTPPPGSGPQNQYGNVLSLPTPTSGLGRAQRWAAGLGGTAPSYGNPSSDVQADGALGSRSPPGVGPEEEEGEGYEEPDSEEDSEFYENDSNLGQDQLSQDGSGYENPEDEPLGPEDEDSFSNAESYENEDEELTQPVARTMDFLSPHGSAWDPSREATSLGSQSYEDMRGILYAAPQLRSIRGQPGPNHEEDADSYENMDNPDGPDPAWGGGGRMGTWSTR

T2: cynomolgus monkey CD19 on peripheral blood B cells (cynomolgus monkey (Macaca fascicularis), UniProt A0A2K5W8L9 20-557)
T2 construct: whole, on cells; also called cynomolgus monkey B cells
T2 sequence: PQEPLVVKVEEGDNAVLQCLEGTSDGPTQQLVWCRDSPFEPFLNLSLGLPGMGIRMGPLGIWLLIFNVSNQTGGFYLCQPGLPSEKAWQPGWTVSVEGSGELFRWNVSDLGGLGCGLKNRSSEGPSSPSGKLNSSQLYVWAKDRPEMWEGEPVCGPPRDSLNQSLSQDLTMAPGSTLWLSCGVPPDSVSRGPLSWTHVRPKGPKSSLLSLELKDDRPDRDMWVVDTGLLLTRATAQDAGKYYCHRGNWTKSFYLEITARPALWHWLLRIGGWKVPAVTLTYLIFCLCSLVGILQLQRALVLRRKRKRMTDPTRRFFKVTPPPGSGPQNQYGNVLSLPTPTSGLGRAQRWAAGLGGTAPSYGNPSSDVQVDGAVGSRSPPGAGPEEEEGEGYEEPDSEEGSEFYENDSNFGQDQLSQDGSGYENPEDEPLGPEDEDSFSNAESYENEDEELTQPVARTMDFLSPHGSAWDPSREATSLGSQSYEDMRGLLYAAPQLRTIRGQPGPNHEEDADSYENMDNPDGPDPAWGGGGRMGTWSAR

T3: human CD19 on CHO-K1-human CD19 cells (human, UniProt P15391 20-556)
T3 construct: whole, on cells; also called CHO-K1-human CD19-2C8
T3 sequence (looked up): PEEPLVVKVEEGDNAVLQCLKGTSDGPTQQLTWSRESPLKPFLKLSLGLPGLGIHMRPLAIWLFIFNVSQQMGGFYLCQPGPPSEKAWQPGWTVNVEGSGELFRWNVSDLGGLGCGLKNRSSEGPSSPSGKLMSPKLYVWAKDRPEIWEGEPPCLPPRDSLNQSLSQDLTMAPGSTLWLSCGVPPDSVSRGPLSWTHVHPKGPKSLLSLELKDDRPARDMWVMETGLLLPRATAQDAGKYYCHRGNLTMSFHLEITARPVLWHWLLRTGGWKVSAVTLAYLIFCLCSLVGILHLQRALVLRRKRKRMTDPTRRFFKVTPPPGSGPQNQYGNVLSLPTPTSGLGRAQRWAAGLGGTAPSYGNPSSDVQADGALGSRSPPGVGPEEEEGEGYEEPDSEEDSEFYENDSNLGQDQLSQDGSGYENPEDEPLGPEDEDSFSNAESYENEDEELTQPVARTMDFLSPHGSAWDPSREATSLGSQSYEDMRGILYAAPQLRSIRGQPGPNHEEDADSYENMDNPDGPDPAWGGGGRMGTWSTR

T4: human CD19 exon1-3-His tag protein (human, UniProt P15391 20-186, limits assumed)
T4 construct: membrane-distal part of the extracellular region, made in HEK293E cells; not shown: His tag
T4 sequence (looked up): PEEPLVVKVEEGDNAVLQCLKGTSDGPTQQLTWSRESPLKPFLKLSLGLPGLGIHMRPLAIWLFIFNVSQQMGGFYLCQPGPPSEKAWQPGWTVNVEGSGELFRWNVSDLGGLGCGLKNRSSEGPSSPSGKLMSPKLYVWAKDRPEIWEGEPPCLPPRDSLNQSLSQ

T5: Human CD19-his protein (human, UniProt P15391 20-291)
T5 construct: bought protein; also called recombinant human CD19-His; CD19 full-length protein; not shown: His tag
T5 sequence (looked up): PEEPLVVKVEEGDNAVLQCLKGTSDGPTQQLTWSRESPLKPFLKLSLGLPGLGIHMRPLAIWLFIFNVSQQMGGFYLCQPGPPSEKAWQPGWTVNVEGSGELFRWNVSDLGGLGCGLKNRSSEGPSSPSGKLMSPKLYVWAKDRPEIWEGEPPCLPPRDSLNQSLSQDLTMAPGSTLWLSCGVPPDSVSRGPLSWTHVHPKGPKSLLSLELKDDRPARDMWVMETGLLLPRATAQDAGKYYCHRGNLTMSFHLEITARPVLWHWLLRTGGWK


Tests used:
[1] = target: T6, monkey CD19 on HEK293T-monkey CD19 cells (monkey); experiment: FACS on HEK293T-monkey CD19 cells
T6 construct: whole, on cells
How it was run: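 Cells blocked in PBS + 2% (w/w) BSA at 2×10⁶ cells/ml, then incubated with test antibody on ice for 2 h. After washes, binding read by flow cytometry as mean fluorescence intensity (MFI). EC50 from fitted MFI curves. Parental HEK293T cells run by the same method.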

[2] = target: T7, monkey CD19 protein (monkey); experiment: ELISA on coated monkey CD19-His
T7 construct: also called monkey CD19-His protein
Description: (§1) Human CD19-his protein (purchased from ACROBiosystems, catalog number: CD9-H52H2) was diluted with PBS to a final concentration of 4 μg/mL, and then added to a 96-well ELISA plate at 100 μl/well. The plate was sealed with a plastic film and incubated overnight at 4° C., the plate was washed 2 times with PBS the next day, and then a blocking solution [PBS+2% (w/w) BSA] was added for blocking at room temperature for 2 h. The blocking solution was poured off, and 100 nM gradiently diluted CD19 chimeric antibody or control antibody was added at 50 μl/well. After incubation at 37° C. for 2 h, the plate was washed 3 times with PBS. […] TMB substrate was added at 50 μl/well, and incubated at room temperature for 10 min, and then a stop solution (1.0 N HCl) was added at 50 μl/well. The OD450 nm values were read by an ELISA microplate reader (Multimode Plate Reader, EnSight, purchased from Perkin Elmer).
(§2) In order to detect the species cross-binding activity of the chimeric antibodies, an ELISA plate was coated with commercial murine CD19 (ACROBiosystems, catalog number: 50510-M08H) and monkey CD19 (ACROBiosystems, catalog number: 90051-C08H), respectively, and the ELISA detection was performed according to the method in example 5.1.

[3] = target: T7, monkey CD19 protein; experiment: ELISA, coated monkey CD19 protein
Description: as §1, §2

[4] = target: T1, human CD19 on Raji cells; experiment: FACS on Raji cells
[5] = target: T2, cynomolgus monkey CD19 on peripheral …; experiment: FACS, cynomolgus PBMC, CD20+ B cells
[6] = target: T3, human CD19 on CHO-K1-human CD19 cells; experiment: FACS on CHO-K1-human CD19 cells
[7] = target: T8, monkey CD19-His protein (monkey); experiment: SPR Biacore, method of example 7.1, monkey CD19-His
T8 construct: bought protein; also called monkey CD19 protein
Description: A sample buffer and a running buffer were HBS-EP+ (10 mM HEPES, 150 mM NaCl, 3 mM EDTA and 0.05% surfactant P20) (GE Healthcare; BR-1006-69). The flow-through cell was set to 25° C. The sample block was set to 16° C. Both were pretreated with the running buffer. In each cycle, an antibody to be detected was first captured with a Protein A chip, and then a single concentration of CD19 antigen protein was injected. The binding and dissociation processes of the antibody and the antigen protein were recorded, and finally Glycine pH 1.5 (GE Healthcare; BR-1003-54) was used to complete chip regeneration. The binding was measured by injecting different concentrations of recombinant human CD19-His proteins in a solution for 240 s with a flow rate of 30 μl/min. The concentration started from 200 nM (see the detailed results for the actual concentration in the test) and was diluted at 1:1, making a total of 5 concentrations. The dissociation phase was monitored for up to 600 s and was triggered by switching from sample solution to running buffer. The surface was regenerated by washing with a 10 mM glycine solution (pH 1.5) for 30 s at a flow rate of 30 μl/min. Bulk refractive index difference was corrected by subtracting the response obtained from the goat anti-human Fc surface. Blank injection was also subtracted (=double reference). For calculation of apparent KD and other kinetic parameters, Langmuir 1:1 model was used.
According to the method in example 7.1, the affinity of the chimeric antibodies to monkey CD19 (ACROBiosystems, catalog number: 90051-C08H) protein was determined.

[8] = target: T4, human CD19 exon1-3-His tag protein; experiment: ELISA on coated human CD19 exon 1-3-His
[9] = target: T5, Human CD19-his protein; experiment: SPR Biacore, Ab captured on Protein A, CD19-His analyte
How it was run: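 Antibodies were captured on a Protein A chip at 25 °C in HBS-EP+. Human CD19-His was injected for 240 s at 30 μl/min at 5 concentrations from 200 nM (1:1 dilutions), with dissociation up to 600 s. Data were double-referenced and fitted to a Langmuir 1:1 model for apparent KD.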

Binder	EC50 [1] [nM]	Maximum mean fluorescence intensity [1]	EC50 (read off the curve) [2] [nM]	OD450 at 0.0001 nM [3] [OD450]	OD450 at 0.001 nM [3] [OD450]	OD450 at 0.01 nM [3] [OD450]	OD450 at 0.10 nM [3] [OD450]	OD450 at 1.00 nM [3] [OD450]	OD450 at 10 nM [3] [OD450]	OD450 at 100 nM [3] [OD450]	EC50 [4] [nM]	Maximum mean fluorescence intensity [4]	Proportion of chimeric antibody positive cells to B cells (%) at 1 nM [5] [%]	Proportion of chimeric antibody positive cells to B cells (%) at 10 nM [5] [%]	Proportion of chimeric antibody positive cells to B cells (%) at 100 nM [5] [%]	EC50 [6] [nM]	Maximum mean fluorescence intensity [6]	Kd [7] [pM]	koff [7] [s⁻¹]	kon [7] [M⁻¹ s⁻¹]	other results
F5.11.2 (antibody, human IgG1, V domains shown, human-murine chimeric antibody, human IgG1) VH: EVQLVESGGDLVKPGGSLKLSCAASGFTFSSYGMSWVRQTPDKRLEWVATISHGGSYTHYPDSVKGRFTISRDNAKNTLYLQMNSLKSEDTAMYYCVRLPITTVEAPYFFDYWGQGTTLTVSS VL: DIQMTQTTSSLSASLGDRVTISCRASQDIRNYLNWYQQKPDGTVKLLIYYTSILHSGVPSRFSGSGSGTDYSLTINNLEQEDVATYFCQQGNTLYTFGGGTEVELR	13	80600	~0.8	0.06	0.06	0.06	0.12	0.71	1.25	1.16	23.4	16600	12	34	76	14.7	46600				
F3.77.6 (antibody, human IgG1, V domains shown, human-murine chimeric antibody, human IgG1) VH: EFQLQQSGPELVKPGASVKISCKASGYSFTDYNMNWVKQSNGKSLEWIGTINPNYITSYNQKFKGKATLTVDQSSSTAYMQLNSLTSEDSAVYYCAGDYKGYWGQGTTLTVSS VL: not shown	6.45	179000	~0.07	0.07	0.11	0.38	1.48	2.27	2.51	2.49	1.62	27400	4	18	56	3.13	4990				
F3.77.6 (antibody, human IgG1, V domains shown, human-murine chimeric antibody, human IgG1 constant) VH: EFQLQQSGPELVKPGASVKISCKASGYSFTDYNMNWVKQSNGKSLEWIGTINPNYITSYNQKFKGKATLTVDQSSSTAYMQLNSLTSEDSAVYYCAGDYKGYWGQGTTLTVSS VL: not shown																		7.59	1.4e-07	18400	EC50 (read off the curve) [8]: ~0.1 nM; Kd [9]: 2 nM; koff [9]: 0.000169 s⁻¹; kon [9]: 84400 M⁻¹ s⁻¹
F3.124.7 (antibody, human IgG1, V domains shown, human-murine chimeric antibody, human IgG1 constant) VH: EVQLQQSGPVLVKPGASVKMSCKASGYTFTDYYMNWVKQRHGKSLEWIGISNPYNGGTSYNQKFKDKATLTVDKSSSTAYMELNSLTSEDSAVYYCAREGGTAQPTSGMDYWGQGTSVTVSS VL: NIMMTQSPSSLAVSAGEKVTMSCKSSQSVLYSSNQKNYLAWYQQKPGQSPKLLIYWASTRESGVPDRFTGSGSGTDFTLTISSVQPEDPAVYYCHQYRSSYTFGGGTKLEIK																		803	5.62e-05	70000	EC50 (read off the curve) [8]: ~0.03 nM; Kd [9]: 1.99 nM; koff [9]: 0.000138 s⁻¹; kon [9]: 69300 M⁻¹ s⁻¹
F3.118.14 (antibody, human IgG1, V domains shown, human-murine chimeric antibody, human IgG1) VH: QVQLQQSGAELVRPGASVTLSCKASGYTFPDYEIHWVKQTPVHGLEWIGAIDPETGGIGYNQKFTGKAMLTADKSSSTAYMELRSLTSEDSAVYFCTRNYGSRWGQGSTLTVSS VL: not shown	9.64	156000	~0.2	0.07	0.1	0.24	1.11	2.05	2.4	2.75	8.38	25900	6	25	79	18	3380				
F3.118.14 (antibody, human IgG1, V domains shown, human-murine chimeric antibody, human IgG1 constant) VH: QVQLQQSGAELVRPGASVTLSCKASGYTFPDYEIHWVKQTPVHGLEWIGAIDPETGGIGYNQKFTGKAMLTADKSSSTAYMELRSLTSEDSAVYFCTRNYGSRWGQGSTLTVSS VL: not shown																		5.83	9.72e-08	16700	EC50 (read off the curve) [8]: ~0.3 nM; Kd [9]: 6.05 nM; koff [9]: 0.000326 s⁻¹; kon [9]: 53900 M⁻¹ s⁻¹
